Experimental data published in patent publication US20230272011A1 (AVACTA LIFE SCIENCES, published 2023).

B1: AVA04-251 XT15 (designed binder)
chain: MIPRGLSEAKPATPEIQEIVDKVKPQLEEKTNETYGKLEAVQYKTQVLAREGRQDWVLSTNYYIKVRAGDNKYMHLKVFNGPWVPFPHQQLADRVLTGYQVDKNKDDELTGFAEAAAKEAAAKEAAAKEAAAKEAAAKEAAAKMIPRGLSEAKPATPEIQEIVDKVKPQLEEKTNETYGKLEAVQYKTQVLANFFQRRWPGSTNYYIKVRAGDNKYMHLKVFNGPWKFRNTDRGADRVLTGYQVDKNKDDELTGFAEAAAKEAAAKEAAAKEAAAKEAAAKEAAAKMIPRGLSEAKPATPEIQEIVDKVKPQLEEKTNETYGKLEAVQYKTQVLAREGRQDWVLSTNYYIKVRAGDNKYMHLKVFNGPWVPFPHQQLADRVLTGYQVDKNKDDELTGFHHHHHH
B2: AVA04-251 XT14 (designed binder)
chain: MIPRGLSEAKPATPEIQEIVDKVKPQLEEKTNETYGKLEAVQYKTQVLAREGRQDWVLSTNYYIKVRAGDNKYMHLKVFNGPWVPFPHQQLADRVLTGYQVDKNKDDELTGFAEAAAKEAAAKEAAAKEAAAKEAAAKEAAAKMIPRGLSEAKPATPEIQEIVDKVKPQLEEKTNETYGKLEAVQYKTQVLAREGRQDWVLSTNYYIKVRAGDNKYMHLKVFNGPWVPFPHQQLADRVLTGYQVDKNKDDELTGFAEAAAKEAAAKEAAAKEAAAKEAAAKEAAAKMIPRGLSEAKPATPEIQEIVDKVKPQLEEKTNETYGKLEAVQYKTQVLANFFQRRWPGSTNYYIKVRAGDNKYMHLKVFNGPWKFRNTDRGADRVLTGYQVDKNKDDELTGFHHHHHH
B3: AVA04-251 BH (designed binder)
chain: MIPRGLSEAKPATPEIQEIVDKVKPQLEEKTNETYGKLEAVQYKTQVLAREGRQDWVLSTNYYIKVRAGDNKYMHLKVFNGPWVPFPHQQLADRVLTGYQVDKNKDDELTGFAEAAAKEAAAKEAAAKEAAAKEAAAKEAAAKMIPRGLSEAKPATPEIQEIVDKVKPQLEEKTNETYGKLEAVQYKTQVLAREGRQDWVLSTNYYIKVRAGDNKYMHLKVFNGPWVPFPHQQLADRVLTGYQVDKNKDDELTGFHHHHHH
notes: also called anti-PD-L1 parental ILF dimer molecule

Experiments:
[1] = target: human PD-L1 (PD-1/PD-L1 blockade Bioassay, Promega) (human, UniProt Q9NZQ7 19-290, limits assumed); assay: cell-based or functional assay
human PD-L1 (PD-1/PD-L1 blockade Bioassay, Promega), sequence (Q9NZQ7 19-290 limits assumed): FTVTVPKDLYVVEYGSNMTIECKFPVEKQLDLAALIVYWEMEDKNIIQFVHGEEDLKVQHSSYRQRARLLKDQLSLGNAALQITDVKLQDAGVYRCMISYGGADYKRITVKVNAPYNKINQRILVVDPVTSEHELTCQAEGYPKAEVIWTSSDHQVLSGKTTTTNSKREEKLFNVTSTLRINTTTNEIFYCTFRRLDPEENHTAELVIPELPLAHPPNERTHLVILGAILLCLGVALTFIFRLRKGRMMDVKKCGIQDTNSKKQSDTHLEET

[2] = target: T1, human serum albumin (human, UniProt P02768 25-609); assay: binding ELISA on coated HSA, pH 7.4
T1 construct: mature; Bought protein; biotinylated in the Octet and HTRF assays; also called HSA; HuSA
Experimental: After saturation with 5% PBS Casein pH 7.5, plates were washed and a dilution of AFFIMER® polypeptides or controls were incubated for 90 minutes. Plates were then washed, and a biotinylated polyclonal antibody anti-cystatin A (R&D Systems) was added for 1 hour. Plates were washed and AFFIMER® polypeptides were detected using streptavidin-HRP. After a last washing step, TMB was added for the development of the experiment and the plates were read at 450 nm.

[3] = target: T1, human serum albumin; assay: SPR (Biacore), immobilised HSA, Affimer analyte
Experimental: Affinities for mouse, human, and cynomolgus serum were also measured at pH 7.4 for four (4) AFFIMER® binders using surface plasmon resonance (SPR) (FIG. 5, Table 5). […] A concentration titration of AFFIMER® monomers was run as analyte at a flow rate of 30 μl/min or 60 μl/min. Fc2-1, Fc3-1 and Fc4-1 kinetic data was blank subtracted and fit to a 1:1 Langmuir binding model (BIAcore Evalution software; GE) to calculate KD values. […]

[4] = target: T2, human PD-L1-Fc (R&D Systems) chimeric protein (human, UniProt Q9NZQ7 19-239); assay: SPR (Biacore), immobilised rhPD-L1-Fc, Affimer analyte
T2 construct: Bought reagent; also called rhPD-L1-Fc; huPD-L1; Fc part of the bought chimera not given, not described
T2 sequence (Q9NZQ7 19-239, change not shown): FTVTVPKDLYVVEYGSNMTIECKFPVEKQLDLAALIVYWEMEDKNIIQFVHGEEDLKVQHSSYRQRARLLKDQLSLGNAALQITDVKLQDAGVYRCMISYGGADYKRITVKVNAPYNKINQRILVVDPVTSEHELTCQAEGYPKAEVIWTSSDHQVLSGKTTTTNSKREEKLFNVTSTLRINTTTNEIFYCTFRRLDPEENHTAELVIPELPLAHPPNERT
Experimental: ILF dimer production from E. coli was performed as described in Example 3. Briefly, protein was purified using three stages: affinity capture, IEX, and preparative SEC. […] To analyze PD-L1-Fc binding kinetics, a Biacore T200 kinetic analysis was performed using running buffer HBS-EP+ and series S sensor CM5 (GE Healthcare) chip Fc2 immobilized with PD-L1-Fc (R&D Systems) in 10 mM sodium acetate pH 4.0 using amine coupling reagents (GE Healthcare). The concentration titration of ILF AFFIMER® polypeptides was run as analyte at a flow rate of 30 μl/min. […] with 3 mM NaOH (GE healthcare) for 20 seconds at 20 μl/min flow rate. The Fc2-1 data blank was subtracted and fit to a 1:1 Langmuir binding model (Biacore evaluation software; GE) to calculate an apparent KD value.
ILF production in E. coli was performed as described in Example 3 using protein purified using affinity capture, IEX, and preparative SEC. Protein purity was assessed using SDS-PAGE and SEC-HPLC.

[5] = target: T2, human PD-L1-Fc (R&D Systems) chimeric …; assay: binding ELISA on coated human PD-L1-Fc (table on the sheet is headed 'IC50 (nM)'; the text calls these values EC50)
Experimental: Briefly, human PD-L1-Fc (R&D Systems) chimeric protein was coated on 96 well plates at […] in carbonate buffer. After saturation with 5% casein/PBS buffer, the plates were washed and a dilution of AFFIMER® polypeptides or controls were incubated for 90 minutes. Plates were then washed and a biotinylated polyclonal antibody anti-cystatin A (R&D Systems) was added for 1 hour. Plates were washed and AFFIMER® polypeptides were detected using streptavidin-HRP. After a last washing step, TMB was added for the development of the experiment and plates were read at 450 nm.

[6] = target: T2, human PD-L1-Fc (R&D Systems) chimeric …; assay: Biacore single cycle kinetics on human PD-L1 Fc

Row | Binder | IC50 as headed on the sheet (EC50); PD-1/PD-L1 blockade Bioassay (Promega), fold change relative to assay buffer [1] [nM] | EC50 [2] [nM] | Kd [3] [nM] | koff [3] [s⁻¹] | kon [3] [M⁻¹ s⁻¹] | Kd [4] [nM] | koff [4] [s⁻¹] | kon [4] [M⁻¹ s⁻¹] | EC50 [5] [nM] | Kd [6] [nM] | koff [6] [s⁻¹] | kon [6] [M⁻¹ s⁻¹]
1 | B1 | 434 | 0.039 | 5.2 | 0.0029 | 557000 | 0.704 | 0.000607 | 863000 | 0.064 | – | – | –
2 | B2 | 176 | 0.062 | 8.75 | 0.00282 | 322000 | 0.504 | 0.00042 | 834000 | 0.033 | 0.307 | 0.000277 | 903000
3 | B3 | 893 | – | – | – | – | 1.71 | 0.00129 | 752000 | 0.03 | – | – | –
